# Laboratory results: the supplement of paper PMC9170038
# System: K4 kissing-loop RNA reporter
# Test: apparent KD of K4 kissing-loop reporter; higher = weaker reporter binding
# Conditions: Eterna round: R107; input ligand: FMN 200 uM
# Description: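 RNA-MaP round R107: designed RNA switches with theophylline, tryptophan, arginine or FMN aptamers are transcribed on-chip within common flanks. They are titrated with a labelled K4 kissing-loop RNA reporter in RNA-MaP buffer (100 mM Tris pH 7.5, 80 mM KCl, 4 mM MgCl2), without ligand or with the indicated ligand. Median apparent KD per design.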
# 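Further: bound reporter read as fluorescence of individual clusters on recovered sequencing chips by microscopy, with normalized cluster intensities fitted with a binding model.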
row,Sequence,apparent KD of K4 kissing-loop reporter [µM]
1,GUGCAGUGAUGUUGCACGAGGAAAGACGAUACCAGCCGUAAAUAAGGCCCUUGGCAGCGUGGGCUAGCAUAAAGUACGCUAGUCU [Mara],0.111
2,AAAUAACAGGCAGGAUAUGCUUAGUAAUAAGGCCAUAUAUACGUAUAGAGUGAUGUUUUGUACAAAGCAGAAGGGCUAAAUCCAU [FMN B Excl V1],0.154
3,UUUGGAUUGCACUAAGAGCGCAAGCGCCAACGAGGACCGGUACGGCCGCCACUCGCGGAGGAGUCCAGUGAUGUUGGACGGCCCG [Onenusan],0.233
4,UGACUGGAUGGAAGGAGCGCUAAACUCCUAGUGAUGUUAGGGAUAUGAGGCAAAGCCUUGAGGCAGGUAGGUCGCCAUCUAGUCU [FiskerMod 25 - Jieux - Same State - Arginine B],0.191
5,CUAUAAGUGCCGAGUGAUGUUCGGCCAAUACGAGGACCGGUACGGCCGCCACUCGGUCAGUGAGUGCCCACCGGGCGUGGCUGAC [Leedgeis],0.261
6,CCGAAGAACCAGUGAUGUUGGUUGACUAGACAGGAUAUGAGCAACAUCAGAAGGGUCUGGCUUCGGGAGUGGGUCACGCUGACCU [Iserreanor],0.271
7,GCUAUGGUAGGAAGGAGCGCUACUUUGUUUUUACGAGUGAUGUUCGGUAGCAGAGUGUUAAAGCAGGUAGGUCGCCUACUAUAGC [Arginine B K4 19],0.225
8,GCAUAGGCCCAUCGGAAUUCGAGACCAGCACGAGGACCGGUACGGCCGCCACUCGUGCAGUGAUGUUGCACGAUUGGGAAACCGC [Beanveceti],0.115
9,ACGUGCACCAGUGAUGUUGGAAAAUAUGAAGGAGCGGGAGAAAACCCAGGUAGGUCGCAUAAUAGCACGAGCCACGAAAGUGGCA,0.191
10,AAUUCUCUUUUUGAUACCAGCGAAUCUGAGUGAUGUUCUAAGCCAUACAAUUGAGUAAAUCGCCCUUGGCAGCAAUUCGUGGGUG [theeternabot_exclusion_KL_Theo_B_20],0.898
11,UCGCACCUGUGGGCGAGGCCUAUAAUUGUCAAGGAUAUAGAUCAUUCUAGAAGGUGACACUUCGCGAGUGAUGUUCGGGAAAUGC [theeternabot_sameState_KL_FMN_A_8],0.386
12,GACGGGCAGUGAUGUUGCCGGUCUCUUGGACGAGGACCGGUACGGCCGCCACUCGAUCUGAUGCAAGAAUCGCAUCUUUUAAUAA [Biququan],0.151
13,AAAGACUGACUGCAAUUAGCAGUCAGUCAACGAGGACCGGUACGGCCGCCACUCGGGUCCUAGAGUGAUGUUCUAAUAAUAUAAU [Default title],0.279
14,GCCUAGGCUCGAAAGAGCCUAGGCUGGGCUCAGGAUAUCCGGAAACGGAGAAGGGAGGGACUAGUGAUGUUAGGGAUUCCCUAUG,0.461
15,CCAUCGCUAUUCGAUACCAGUCAAGAGGUCUUUGGCCUCUUAAUGGAGUGAUGUUCCUUAGACCCUUGGCAGCGAAUAGUGAUGG [Theophylline B K4 13],0.266
16,AACGCUGCCUGAGGAUAUAGAAACGAGUGAUGUUCGUGGAACGAGACCAGUGAUGUUGGCCUAUUUCUAGAAGGCAGGCAACCGC [Exclusion FMN B GF 1],0.155
17,AACGCUCAAUAGAGAGUGAUGUUCUCUAUACGAGGACCGGUACGGCCGCCACUCGAAUGUAUAGCGAAACGCUAUACACAGUGGU [Tryp A SS t2],0.155
18,AAAAUAAACCAGUGAUGUUGGUGUCUAGAUACCAGCGAUAAUAAUCGCCCUUGGCAGCUACGGACGUACAAAAUAAGUACGUCCU [MatMod 10 - Jieux - Same State - Theophylline A],0.543
19,CGCAGUGAUGUUGCUAUUGUUCUUGGUUAACGAGGACCGGUACGGCCGCCACUCGAUGUCUGUCUAGUCCAGUGUUUUUUUGAGU [whbob_EX_Tryp_A_t9],0.513
20,UGACAUUGCUCAGAUACCAGUCAUGAGGAUCACCCAUGGGCCAAACGUACAAUAAUAAAUGACCCUUGGCAGCUGAGCAAUGUCU [TheoBX 14],0.0645
21,CCUAUCUCGUAGGAUACCAGACUAUGAUCUAUGAUCAAUGCCAUCACCGAGUGAUGUUCGGUCCCUUGGCAGCCUAUGAGAUGGG [#13 K4 Theophylline B Exclusion],0.166
22,UUAUUAUUCAGUGAUGUUGAAUUUAUUUCAGAGGAUAUGCAUAAAUGCAGAAGGCUGUAAUACUAUACUUUAAUAAAUUAAAUUU [JR_SSFMNA_Sub018],0.242

row,Sequence,apparent KD of K4 kissing-loop reporter [µM]
1,GUUACGCAUGGAAGGAGCGCUCUCAUACUUAAUAACACAGUGAUGUUGUGAAUUUGUAUAAAGCAGGUAGGUCGCCAUGUGUAAC [Ex Arginine B K4 7],0.417
2,GGUAGCAUGGCGGCCGCCACUACCUAGUGAUGUUAGGCUGUGGACAUAGGAGCAAGACAAAUAUGUAGGACCGGGCCAUGCUACC,0.126
3,AUAUCUAGAGUGAUGUUCUAGUAAGCUGAAGGAGCGGACGAAAGUCCAGGUAGGUCGCAGUGUUUUUACACCUCAUGUGUAGGAG [KL-SSArg-A7 #analogue],0.118
4,GCAGUGAUGUUGCACGAGUAGGCUGGAGUACGAGGACCGGUACGGCCGCCACUCGUACGAAAGUCGCUAAUUUAUGGAAUGGUGA [#07 K4 Tryptophan A Same State],0.65
5,AGUGAUGUUGUGUUAUGUUAGUGAAGUGAUCGAGGACCGGUACGGCCGCCACUCGAGUGAUGAGUGAGUGAUGUUUGUUUAGGGA [popmullin],1.1
6,UGGAGUUGACGAAAAGUCAACUCCCGAGAAGGAGCGGACGAAAGUCCAGGUAGGUCGCUCACUACCAGUGAUGUUGGUACUUAAA,0.138
7,CGCAGUGAUGUUGCGAGCAGCUACAGGGAAGGAGCGCUUUAGUAAGCAGGUAGGUCGCCCACGCAGUGAUGUUGCGUCAUAGGGU [Exclusion Arginine A GF 20],0.158
8,CUAUGGAAACAUAGUAAUCGGGAAACCGAUACCAGUAUGGAAACAUACCCUUGGCAGCGGAAUGAUUAAACGGAGUGAUGUUCCG [Theophylline A K4 17],0.354
9,CCAUCGCUAUUCGAUACCAGUCAUUUUUUAUUUUUUUUUUUUUUUGGAGUGAUGUUCCAAGACCCUUGGCAGCGAAUAGUGAUGG [whbob_SS_Theo_B_th77],0.0913
10,GUCGGGACUCGAGGAUAUCAGUGGAGGCCAGUGAUGUUGGCCGUCCCGGUAGUUAAAAUUUUACCCUGAGAAGGCGAUUUCUGUC [Veceinusqu],0.142
11,AAUAAAAUCACGGCCGCCACUGAAUUAUUGGUAAGUAGUGAUGUUACUUUACAUAUCUAAUUUAACAGGACCGGGUGAAUAUUUA [#17 K4 Tryptophan B Exclusion],0.13
12,UAUGUACACUGGUAGUGGUACAUCGAGGAAGGAGCGUGCGCAGGCACAGGUAGGUCGCCUCAGCGCACGAGUGAUGUUCGUGGGC [Ceaqu],0.308
13,AAGGUCACUGCUACAGUGAUGUUGUGGGAGCAGGAUAUGCUGAAAAGCAGAAGGGCUCGCUCCAGGUGACCGAAUGAAACAUUCA [whbob_SS_FMNA__2th176],1.14
14,CUUAGGAGUGGUGUUGAUUAGGGAGCGGAAGGAGCGCCAAUGAUGGCAGGUAGGUCGCCGGAAUGUAGUGAUGUUGCAUAGAGGG [ExArgA.S],0.476
15,GCCGUACGCAUGGAUACCAGCAUUUAUGACACACUGCUAGUGAUGUUAGCUAUGCGUAUAUGCCCUUGGCAGCCAUGCGUACGGC,0.15
16,AAGCAGUCCCUUGUUGUCAUCGAAGAUGAACGAGGACCGGUACGGCCGCCACUCGGAGUGAUGUUCCGAUGGCUGCAAAAUAAAA [MatMod 21 - Jieux - Exclusion - Tryptophan A],0.101
17,GCCGUAGAUGGAAGGAGCGUGAUAAGUGAAUUAUCCAGUGAUGUUGGAUCUUAGAUAGGAUCACAGGUAGGUCGCCAUCUACGGC,0.244
18,GUAGACGUACCUUCAGUGAUGUUGAAGGAUACCAGAUGUUAUCACAUCCCUUGGCAGCCUUGGGAUAACAGUGAGUCGGAAUAUG [Essoaran],0.17
19,UGUGUUGUGUAGUGUUAUGUUUUGAGGGAUACCAGAGUGUUUUUAUUCCCUUGGCAGCUUGAGUGAUGUUUGAUGUUGUUGUUGU [jlljmullin],0.297
20,CAUACGCAUGGAGGAUAUGAGAUUUCUCAUAUUAUUUAAUAUUCUCAGUGAUGUUGAGAAAUAAACUCAGAAGGCCAUGUGUAUG [Ex FMN B 3],0.256
21,GUACCUUGGAAACAAGGACCGCUAACCGAAGGAGCGCGUGAAAACGCAGGUAGGUCGCGGUAGCGGAGUGAUGUUCCGCGAGAGG [Excluson Arginine A GF 14],0.166
22,AGGUCCGAGCCCGGAAGGGCUCGGACCUGUUAGGAUAUGACGUUAUUCAGAAGGGAUGGGUGGAGUGAUGUUCCACCCGCAAGGG [#2 Same State - FMN A Attempt #9 (HarryS)],0.07

# Same assay, conditions: Eterna round: R107; input ligand: arginine 13.2 mM
row,Sequence,apparent KD of K4 kissing-loop reporter [µM]
1,GUGCAGUGAUGUUGCACGAGGAAAGACGAUACCAGCCGUAAAUAAGGCCCUUGGCAGCGUGGGCUAGCAUAAAGUACGCUAGUCU [Mara],0.115
2,AAAUAACAGGCAGGAUAUGCUUAGUAAUAAGGCCAUAUAUACGUAUAGAGUGAUGUUUUGUACAAAGCAGAAGGGCUAAAUCCAU [FMN B Excl V1],0.151
3,UUUGGAUUGCACUAAGAGCGCAAGCGCCAACGAGGACCGGUACGGCCGCCACUCGCGGAGGAGUCCAGUGAUGUUGGACGGCCCG [Onenusan],0.359
4,UGACUGGAUGGAAGGAGCGCUAAACUCCUAGUGAUGUUAGGGAUAUGAGGCAAAGCCUUGAGGCAGGUAGGUCGCCAUCUAGUCU [FiskerMod 25 - Jieux - Same State - Arginine B],0.117
5,CUAUAAGUGCCGAGUGAUGUUCGGCCAAUACGAGGACCGGUACGGCCGCCACUCGGUCAGUGAGUGCCCACCGGGCGUGGCUGAC [Leedgeis],0.225
6,CCGAAGAACCAGUGAUGUUGGUUGACUAGACAGGAUAUGAGCAACAUCAGAAGGGUCUGGCUUCGGGAGUGGGUCACGCUGACCU [Iserreanor],0.282
7,GCUAUGGUAGGAAGGAGCGCUACUUUGUUUUUACGAGUGAUGUUCGGUAGCAGAGUGUUAAAGCAGGUAGGUCGCCUACUAUAGC [Arginine B K4 19],0.244
8,GCAUAGGCCCAUCGGAAUUCGAGACCAGCACGAGGACCGGUACGGCCGCCACUCGUGCAGUGAUGUUGCACGAUUGGGAAACCGC [Beanveceti],0.101
9,ACGUGCACCAGUGAUGUUGGAAAAUAUGAAGGAGCGGGAGAAAACCCAGGUAGGUCGCAUAAUAGCACGAGCCACGAAAGUGGCA,0.0814
10,AAUUCUCUUUUUGAUACCAGCGAAUCUGAGUGAUGUUCUAAGCCAUACAAUUGAGUAAAUCGCCCUUGGCAGCAAUUCGUGGGUG [theeternabot_exclusion_KL_Theo_B_20],0.681
11,UCGCACCUGUGGGCGAGGCCUAUAAUUGUCAAGGAUAUAGAUCAUUCUAGAAGGUGACACUUCGCGAGUGAUGUUCGGGAAAUGC [theeternabot_sameState_KL_FMN_A_8],0.212
